Measurements taken from IntAct's records for PubMed 20094029.

B1: BRCT-containing protein 1 (Schizosaccharomyces pombe (strain ATCC 38366 / 972)), Q10337 (parent)
chain: MLAAESSNKELFIKNDGKALSFPYDWKLATHVICDDFSSPNVQEGSKRSLRLAKTNWIRDCVDKNTLLNYSFYSCNPYLLFKGICASSCQIDSYQSSLIDDALETFGGRFSKGLMKSMTHLFTYSGMGAKCKKVLDKPSLSIKLIHPQWLLDCLQFGQLIDQDPYLFPNPSYKKNDSSISKAEPTSLFRNVLHGKRIYFSNDLNLPTNFRHSLQKFSVGIGAKIAESINDCDIFIGLKRDTIEFNLASNKNTTIGTISWLLNLFVLGSWKSPLLNALHYPFPSVGFLKDQMVAVTNYTDAARIYLEKLLLACGATYTKDLKPTNTLLIAASSYGQKYGAAKVWNIPTVHHSWLYSSFKNLSSQAFTDFPVPLDDSYMDFIFPCPLNVEKGSFEDTLKSSLTKGNSEVLLDDLSDPSVSSIKGNKTNEELEKEFKSTSDNFGKHIILTSSFSNQSADKGSSLAAEDDRNDEGSTITGVNRELQDEGRLEIDAKSSKTNTPPSPLLVGTPSKESLKEASSDDELPVLATKLVDNVIKEKSPLSLTPKVVVPSHKETYTDEKKLIDELDRVNPLNSSQLLRSKRKSAATALSMLQNVIMPDVLAFEREKKRRQTHRSVSSGEVSRESSESRNTNAKASKRVYITFTGYDKKPSIDNLKKLDMSITSNPSKCTHLIAPRILRTSKFLCSIPYGPCVVTMDWINSCLKTHEIVDEEPYLLNDPEKELELGCTLESALKRARAQGPSLLEDYVVYLTSKTVAPENVPAVISIVKSNGGVCSTLNVYNKRLARHLEDGNVVLITCNEDSHIWTNFLDNASQNKTIFLQNYDWLIKTVLRQEIDVNDRIADEFARAV

Variants of: B1
Details: with h2a1_schpo hta1, P04909

Variant	effect of a mutation on the interaction
T643A	disrupting interaction
